Data: US20230235080A1, “TROPHOBLAST CELL-SURFACE ANTIGEN-2 (TROP-2) ANTIBODIES” (Bionecure Therapeutics, Inc., priority 2020, published 2023)

B1: murine-human chimeric IgG1 #118-2-5 (antibody, V domains shown)
VH: QVQLKQSGPGLVAPSQSLSITCTVSGFSLTSYGVNWIRQPPGKGLEWLGVMWAGGSTNYNSALMSRLSISKDNSKSQVFLKMNSLQTDDTGMYYCARDENWDGAWFAYWGQGTLVTVSA
VL: DIQMTQSPSSLAVSAGEKVTMSCKSSQSLLNSGTRKNYLAWYQQKPGQSPKLLISWASSRESGVPDRFTGSGSGTDFTLTISSVQAEDLAVYYCKQSYNLFTFGGGTKLELKR
notes: Chimeric IgG1 expressed in HEK293-6E cells
B2: murine-human chimeric IgG1 #125-1-5 (antibody, V domains shown)
VH: QIQLVQSGPELVKPGASVKMSCKASGYTFTTYVIHWVKQKPGQGLEWIGYINPNNDGTKYNEKFKGKATLISDKSSTTAYMEVRGLTSEDSAVYYCARPHFETHAMDYWGQGTSVTVSS
VL: DIQMTQSPSSFSVSLGDSVTITCKASEDIFNRLAWYQQKPGNAPRLLISGATSLETGVPSRFSGGGSGKEYTLSITSLQNEDVATYYCQQYWNTWTFGGGTKLEIKR
notes: as for B1
B3: #125-1-5 (antibody, listed as Mus musculus, V domains shown)
VH: B2 VH
VL: DIQMTQSPSSFSVSLGDSVTITCKASEDIFNRLAWYQQKPGNAPRLLISGATSLETGVPSRFSGGGSGKEYTLSITSLQNEDVATYYCQQYWNTWTFGGGTKLEIK
B4: humanized IgG #118-2-5 Hu(A1)/LuX (antibody, V domains shown)
VH: QVQLQESGPGLVKPSETLSLTCTVSGFSLTSYGVNWIRQPPGKGLEWIGVMWAGGSTNYNSALMSRVTISVDTSKNQFSLKLSSVTAADTAVYYCARDENWDGAWFAYWGQGTLVTVSS
VL: DIVMTQSPDSLAVSLGERATINCKSSQSLLNSGTRKNYLAWYQQKPGQPPKLLIYWASSRESGVPDRFSGSGSGTDFTLTISSLQAEDVAVYYCKQSYNLFTFGGGTKVEIK
notes: Second round of humanization

Key:
[1] = biological target: T1, human Trop-2-ECD-6His fusion protein (Homo sapiens, UniProt P09758); assay: Antigen binding assay (ELISA) on immobilized Trop-2-ECD-6His; conditions: for OD value, Conditioned Medium 1 to 1 ratio / OD value, Conditioned Medium 1 to 10 ratio: Table 3, ELISA absorbance at 405 nm
T1 construct: made in house; host or cells: human 293 cell line
T1 sequence (P09758 with tags, fused parts or gaps): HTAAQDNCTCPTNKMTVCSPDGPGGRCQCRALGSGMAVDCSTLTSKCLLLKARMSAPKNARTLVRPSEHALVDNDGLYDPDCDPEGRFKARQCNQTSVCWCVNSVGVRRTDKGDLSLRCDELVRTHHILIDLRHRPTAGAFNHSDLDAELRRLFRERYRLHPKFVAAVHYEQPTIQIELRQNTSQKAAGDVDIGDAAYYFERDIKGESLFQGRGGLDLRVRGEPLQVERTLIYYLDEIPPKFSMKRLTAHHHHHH
Experimental: Using the HCVR sequence and LCVR sequence of mAbs #118-2-5 and #125-1-5, two murine-human chimeric IgG1 (hereinafter “chimeric IgG1”) was prepared which comprised the heavy chain sequences set forth in SEQ ID NOs: 47 and 49, and the light chain sequences set forth in SEQ ID NOs: 48 and 50. Nucleic acids encoded by SEQ ID NO: 19, 20 and SEQ ID NO: 21, 22 were amplified and inserted into pTT5 to make an expression plasmid of the full-length IgG. The heavy chain and light chain expression plasmids were used to co-transfect 100 mL HEK293-6E cells. The recombinant IgG secreted into to media was purified using protein A affinity. The purified IgG migrated as ~150 kDa band in SDS-PAGE under non-reducing conditions, ~55 kDa and ~30 kDA bands under reducing condition. The purity of the chimeric IgG is >90%. The binding affinity between the chimeric IgGs and a human Trop-2-ECD-6His fusion protein (SEQ ID NO:2) was determined by ELISA. The Trop-2-ECD-6His fusion protein was immobilized on the surface of a microplate wells and incubated with the chimeric IgGs. A secondary enzyme-labeled goat-anti-mouse IgG-AP was then added. After washing, the activity of the microplate well-bound enzyme was measured by adding the substrate. Color development and absorbance at 405 nm were read.

[2] = tested on: Trop-2 positive breast cancer cell line MDA-MB-468; assay: Internalization assay by flow cytometry (Example 2 protocol); format: cell-based, human; conditions: Table 4; chimeric IgGs; 2 hours at 37° C.; 100 × (MFI4°C - MFI37°C) / MFI4°C
Experimental: The chimeric IgG1 #118-2-5 and #125-1-5 were further evaluated by internalization assay using Trop-2 positive breast cancer cell line MDA-MB-468. MDA-MB-468 cells were seeded at 1×10^5 cell/well. Next, the chimeric or benchmark IgGs were added to cells in FACS buffer and incubated for 2 hours at 4° C. After incubation, the cells were washed to remove unbound antibody. The cells were then incubated at 37° C. After 2 hours, the cells were dissociated and stained with fluorescent-conjugated […] secondary antibodies for 30 minutes on ice in dark before being analyzed using Beckman flow cytometry system. The fluorescent intensity and cell binding percentage at each time point were analyzed by Beckman flow cytometric software. The amount of chimeric IgGs internalized into cells was determined using the following formula: % internalization rate = 100 × (MFI4°C - MFI37°C) / MFI4°C.

human Trop-2ECD-6His = biological target: T2, human Trop-2ECD-6His (Homo sapiens, UniProt P09758); assay: Cross-reactivity ELISA, human Trop-2; format: binding; conditions: plate coated with 1 µg/mL antigen
T2 construct: made in house; host or cells: human 293 cell line
T2 sequence (P09758 with tags, fused parts or gaps): T1 sequence (P09758 with tags, fused parts or gaps)
Experimental: (§1) Cross-reactivity of chimeric IgG #118-2-5 and #125-1-5 to the Trop-2 antigens from different species was assessed by ELISA. In this experiment, a microtiter plate was coated overnight at 4° C. with 50 µL/well of 1 µg/mL human Trop-2ECD-6His, mouse Trop-2-His, cynomolgus Trop-2-His, human EPCAM-His, and a non-related protein. The plate was washed and blocked for 1 hr at 37° C., and then washed with wash buffer. Purified chimeric IgGs appropriately diluted in PBS were added to wells and incubated for 1 hr at 37° C. After washing, bound antibodies were detected using HRP-conjugated goat-anti-human IgG Ab. Color development and absorbance at OD450 nm were read. A non-specific mock mouse IgG and a non-specific mock human IgG were included as the negative controls, while anti-His antibody was used as a positive control.
(§2) The cross-reactivity of purified IgGs to the Trop-2 antigens from different species was tested by ELISA. In this experiment, a microtiter plate was coated overnight at 4° C. with 50 µL/well of 1 µg/mL human Trop-2ECD-6His, mouse Trop-2-His, cynomolgus Trop-2-His, human EPCAM-His, and a non-related protein. The plate was washed and blocked for 1 hr at 37° C., and then washed with wash buffer. […] After washing, bound antibodies were detected using HRP-conjugated goat-anti-human IgG antibody. Color development and absorbance at OD450 nm were read. […]

cynomolgus Trop-2-His = assay: Cross-reactivity ELISA, cynomolgus Trop-2; format: binding; conditions: plate coated with 1 µg/mL antigen
Experimental: as §1, §2

mouse Trop-2-His [3] = biological target: T3, mouse Trop-2-His (Mus musculus, UniProt Q8BGV3); assay: Cross-reactivity ELISA, mouse Trop-2; format: binding; conditions: plate coated with 1 µg/mL antigen
T3 sequence (Q8BGV3 25-317): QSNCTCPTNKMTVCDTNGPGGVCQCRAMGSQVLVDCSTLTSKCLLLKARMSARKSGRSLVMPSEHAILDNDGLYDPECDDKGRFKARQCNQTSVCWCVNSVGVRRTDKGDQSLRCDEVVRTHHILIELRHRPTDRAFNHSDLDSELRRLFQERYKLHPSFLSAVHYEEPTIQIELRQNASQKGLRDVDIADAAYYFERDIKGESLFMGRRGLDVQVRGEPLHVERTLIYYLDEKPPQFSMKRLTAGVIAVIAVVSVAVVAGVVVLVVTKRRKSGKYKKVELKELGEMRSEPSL
Experimental: as §1
(§3) The cross-reactivity of purified IgGs to the Trop-2 antigens from different species was tested by ELISA. In this experiment, a microtiter plate was coated overnight at 4° C. with 50 µL/well of 1 µg/mL human Trop-2ECD-6His, mouse Trop-2-His, cynomolgus Trop-2-His, human EPCAM-His, and a non-related protein. The plate was washed and blocked for 1 hr at 37° C., and then washed with wash buffer. Purified anti-Trop-2 antibodies appropriately diluted in PBS were added to wells and incubated for 1 hour at 37° C. After washing, bound antibodies were detected using HRP-conjugated goat-anti-human IgG antibody. Color development and absorbance at OD450 nm were read. A non-specific human IgG1 was included as a negative control, while hRS7 was used as a positive control.

human EPCAM-His [4] = biological target: T4, human EPCAM-His (Homo sapiens, UniProt P16422); assay: Cross-reactivity ELISA, human EPCAM; format: binding; conditions: plate coated with 1 µg/mL antigen
T4 sequence (P16422 24-314): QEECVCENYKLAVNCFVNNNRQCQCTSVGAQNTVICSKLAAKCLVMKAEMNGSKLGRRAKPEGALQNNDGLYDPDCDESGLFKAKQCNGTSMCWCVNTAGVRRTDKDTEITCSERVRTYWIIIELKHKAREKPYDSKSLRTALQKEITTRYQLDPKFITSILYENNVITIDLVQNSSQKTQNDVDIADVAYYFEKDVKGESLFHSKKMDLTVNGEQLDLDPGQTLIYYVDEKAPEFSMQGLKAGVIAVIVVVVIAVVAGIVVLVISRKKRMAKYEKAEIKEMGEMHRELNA
Experimental: as §1, §3

non-related protein = assay: Cross-reactivity ELISA, non-related protein; format: binding; conditions: plate coated with 1 µg/mL protein
Experimental: as §1, §3

[5] = biological target: T5, human Trop-2-ECD-6His fusion protein (human, UniProt P09758 27-274); assay: ELISA on immobilized Trop-2-ECD-6His; control, 1 to 1 ratio
T5 construct: Expressed in a human 293 cell line; also called huTrop-2; human Trop-2 antigen
T5 sequence: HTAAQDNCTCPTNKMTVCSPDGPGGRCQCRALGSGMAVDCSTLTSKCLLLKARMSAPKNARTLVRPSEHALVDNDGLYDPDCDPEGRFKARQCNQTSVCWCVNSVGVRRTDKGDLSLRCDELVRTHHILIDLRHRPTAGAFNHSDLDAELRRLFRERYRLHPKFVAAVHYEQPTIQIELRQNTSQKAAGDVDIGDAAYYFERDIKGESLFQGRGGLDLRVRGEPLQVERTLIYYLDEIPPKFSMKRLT

[6] = biological target: T5, human Trop-2-ECD-6His fusion protein; assay: ELISA on immobilized Trop-2-ECD-6His; control, 1 to 10 ratio
mouse Trop-2-His [7] = biological target: T6, mouse Trop-2-His (mouse, UniProt Q8BGV3 25-270); assay: ELISA on coated antigen, one antibody dilution (concentration not given); on the sheet OD405, detected by GAM/H-AP
T6 sequence (looked up): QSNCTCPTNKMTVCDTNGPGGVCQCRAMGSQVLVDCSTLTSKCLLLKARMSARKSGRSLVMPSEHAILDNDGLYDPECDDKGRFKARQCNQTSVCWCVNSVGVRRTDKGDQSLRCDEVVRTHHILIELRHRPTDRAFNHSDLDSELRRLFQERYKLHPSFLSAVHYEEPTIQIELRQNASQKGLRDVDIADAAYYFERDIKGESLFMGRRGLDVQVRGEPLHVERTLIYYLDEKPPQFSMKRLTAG

human EPCAM-His [8] = biological target: T7, human EPCAM-His (human, UniProt P16422 24-265); assay: as above
T7 construct: also called hEPCAM
T7 sequence (looked up): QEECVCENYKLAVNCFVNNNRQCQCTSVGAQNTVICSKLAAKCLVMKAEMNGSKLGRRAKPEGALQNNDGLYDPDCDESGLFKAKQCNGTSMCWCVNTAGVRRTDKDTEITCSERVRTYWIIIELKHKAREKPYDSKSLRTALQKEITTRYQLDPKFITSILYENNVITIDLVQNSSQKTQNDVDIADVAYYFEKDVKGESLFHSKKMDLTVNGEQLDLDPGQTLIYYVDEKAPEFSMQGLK

[9] = biological target: human Trop-2 on Trop-2 positive cancer cells (human) (UniProt P09758); assay: cell-based or functional assay
[10] = biological target: T5, human Trop-2-ECD-6His fusion protein; assay: antigen binding ELISA on immobilized human Trop-2-ECD-6His

Molecule	OD value, Conditioned Medium 1 to 1 ratio [1]	OD value, Conditioned Medium 1 to 10 ratio [1]	Internalization rate [2]	binding to human Trop-2 antigen (ELISA, OD450 nm) (human Trop-2ECD-6His)	binding to cynomolgus Trop-2 antigen (ELISA, OD450 nm) (cynomolgus Trop-2-His)	recognition of mouse Trop-2 (ELISA, OD450 nm) (mouse Trop-2-His [3])	recognition of hEPCAM (ELISA, OD450 nm) (human EPCAM-His [4])	recognition of the non-related protein (ELISA, OD450 nm) (non-related protein)	binding result (mouse Trop-2-His [7])	binding result (human EPCAM-His [8])	other results
hRS7: anti-Trop2 antibody used in sacituzumab govitecan (IMMU-132); used as a benchmark antibody [reference compound]	1.339	1.457	17.62%	able to bind	able to bind	some non-specific binding	some non-specific binding	some non-specific binding	–	–	recognition of mouse Trop-2 (ELISA, OD450 nm) (mouse Trop-2-His [3]; listed as benchmark IgG): did not recognize; recognition of hEPCAM (ELISA, OD450 nm) (human EPCAM-His [4]; listed as benchmark IgG): did not recognize; recognition of the non-related protein (ELISA, OD450 nm) (non-related protein; listed as benchmark IgG): did not recognize
BSA (from UniProt P02769 25-607)	–	–	–	–	–	–	–	–	–	–	OD (absorbance at 405 nm) [5]: 0.059 OD; OD (absorbance at 405 nm) [6]: 0.058 OD
B1	–	–	–	–	–	–	–	–	no binding	no binding	–
B2	–	–	–	–	–	–	–	–	no binding	no binding	–
B3	1.572	1.539	4.70%	able to bind	able to bind	did not recognize	did not recognize	did not recognize	–	–	binding affinity to Trop 2 compared with benchmark hRS7 ([1]; in words, chimeric IgGs, see OD value in Table 3): higher binding affinity than the benchmark reference antibody hRS7
B4	–	–	–	–	–	–	–	–	–	–	Internalization rate (flow cytometry, MDA-MB-468 cells) [9]: 56%; EC50 [10]: 0.28 nM
